In PMC3448977 (Biochemistry, 2012):

T1: Human BMP-9 (human, UniProt Q9UK05 320-429)
T1 sequence (looked up): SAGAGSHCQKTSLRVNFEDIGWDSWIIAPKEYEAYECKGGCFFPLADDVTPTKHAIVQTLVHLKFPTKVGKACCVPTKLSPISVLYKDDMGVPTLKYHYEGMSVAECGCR


Assays:
[1] = biological target: BMP-9 (Homo sapiens) (UniProt Q9UK05); settings: cited from earlier work
[2] = biological target: T1, Human BMP-9; test: SPR

Chain of Fc-Alk1 ECD (P37023 22-118): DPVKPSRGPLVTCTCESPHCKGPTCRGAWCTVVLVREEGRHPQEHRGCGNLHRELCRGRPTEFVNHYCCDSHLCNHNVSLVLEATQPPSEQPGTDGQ

Kd [2] [nM]	Molecule	Kd [1] [nM]
–	Fc-Alk1 ECD (from UniProt P37023)	2.5
5700	Alk1 extracellular domain with Arg53-Glu54-Leu55 swapped for Asp-Phe-Gln of Alk3 (Alk1-DFQ) (domain or fragment, human) GSHMDPVKPSRGPLVTCTCESPHCKGPTCRGAWCTVVLVREEGRHPQEHRGCGNLHDFQCRGRPTEFVNHYCCDSHLCNHNVSLVLEATQPPSEQPGTDGQ	–
